Experiments:
His-HPV18E7融合蛋白 = molecular target: T1, His-HPV18E7融合蛋白 (HPV18, UniProt P06788 1-105); assay: indirect ELISA, antigen coated at 0.5μg/ml, antibody 0.1μg/ml
T1 construct: not shown: His tag
T1 chain: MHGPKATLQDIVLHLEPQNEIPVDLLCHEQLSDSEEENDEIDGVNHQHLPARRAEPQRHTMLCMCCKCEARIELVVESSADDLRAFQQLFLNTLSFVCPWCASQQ

重组蛋白His-HPV16E7 = molecular target: T2, 重组蛋白His-HPV16E7 (HPV16, UniProt P03129 2-98); assay: as above
T2 construct: also called His-HPV16E7融合蛋白; His-HPV16E7重组蛋白; not shown: His tag
T2 sequence: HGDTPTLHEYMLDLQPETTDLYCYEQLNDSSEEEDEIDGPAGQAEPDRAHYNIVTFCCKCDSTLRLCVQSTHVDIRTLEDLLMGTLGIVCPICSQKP

细胞内源的HPV16E7蛋白 = molecular target: T3, 细胞内源的HPV16E7蛋白 (HPV16, UniProt P03129 2-98); assay: immunocytochemistry on fixed, permeabilised CaSki cells (C-33A as negative control)
T3 construct: Endogenous, intracellular HPV16 E7 in fixed and permeabilised CaSki cells (ICC) or in formalin-fixed paraffin sections of cervical tissue (IHC); as printed it has no initial Met; also called 宫颈癌细胞株CaSki表达的HPV16E7蛋白; 宫颈癌组织中的HPV16E7蛋白
T3 sequence: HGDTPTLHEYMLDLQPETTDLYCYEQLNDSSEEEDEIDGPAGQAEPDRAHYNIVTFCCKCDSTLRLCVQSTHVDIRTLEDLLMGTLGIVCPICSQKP

多肽HPV16E7-1 = molecular target: T4, 多肽HPV16E7-1 (HPV16); assay: ELISA, peptide coated at 2μg/ml
T4 construct: Peptide of HPV16 E7
T4 peptide: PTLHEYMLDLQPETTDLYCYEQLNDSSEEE

多肽His-Vac = molecular target: T5, 多肽His-Vac (HPV16); assay: ELISA, peptide coated at 2μg/ml
T5 peptide: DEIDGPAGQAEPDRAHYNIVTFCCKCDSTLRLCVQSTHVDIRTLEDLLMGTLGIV

多肽HPV16E7-27 = molecular target: T6, 多肽HPV16E7-27 (HPV16); assay: ELISA, peptide coated at 2μg/ml
T6 construct: Peptide of HPV16 E7
T6 peptide: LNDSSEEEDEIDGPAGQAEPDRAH

多肽HPV16E7-5 = molecular target: T7, 多肽HPV16E7-5 (HPV16); assay: ELISA, peptide coated at 2μg/ml
T7 construct: Peptide of HPV16 E7
T7 peptide: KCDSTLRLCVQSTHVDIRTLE

B1: 兔源单克隆抗体RAB-034 (antibody, V domains shown)
VH: QSLEESGGRLVTPGTPLTLTCTVSGIDLSSYAMGWVRQAPGEGLDWIGSIGSSGRTYYANWAKGRFTISKTSSTTVDLKMTSLTTEDTATYFCARGVVNRSDIWGPGTLVTVSS
VL: DPMLTQTASSVSAAVGGTVTISCQSSQSVYDNNWLGWYQQKPGQPPKLLIYGASNLESGVPSRFKGSGSGTQFTLTISDVQCDDAATYYCAGGYSGNRYVFGGGTEVVVK
notes: also called 抗HPV16E7兔单抗RAB-034
B1: binds (His-HPV18E7融合蛋白); binds (重组蛋白His-HPV16E7); binds (细胞内源的HPV16E7蛋白). B1: no binding (tested: 1μg/ml) (多肽HPV16E7-1); no binding (tested: 1μg/ml) (多肽His-Vac); no binding (tested: 1μg/ml) (多肽HPV16E7-27). B1: no binding (tested: 1μg/ml) (多肽HPV16E7-5).

Reference: patent CN105131113A (ATTOBIO BIOPHARMACEUTICAL SUZHOU CO LTD, dated 2015)
